B1: CDC14A (parent)
chain: LWVQGDIFRSKLKNRPSSEGSINK

Variants of: B1
Assay: protein stability index of a GFP-peptide fusion (GPS, HEK-293T) (PSI 1-6); higher = more stable
Conditions: c terminus: a fixed tail appended
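Note: lentivirally expressed fusions sorted by FACS into six bins by GFP to DsRed ratio, PSI derived from sequencing read proportions per bin multiplied by bin number.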

Protein stability index of substitutions, site by site:
L1: Q 2.79, R 4.17, S 4.05, T 4.24, V 2.2, W 2.3, Y 2.43
W2: A 4.05, C 3.8, D 4.4, E 5.28, F 3.07, G 4.04, H 3.81, I 2.51, K 3.74, L 2.98, M 3.48, N 4.07, P 4.26, Q 4.28, R 3.46, S 4.49, T 4.6, V 2.6, Y 2.67
V3: A 3.45, C 2.94, D 3.58, E 4.85, F 2.64, G 3.18, H 1.99, K 3.26, L 2.07, M 2.73, N 2.71, P 3.94, Q 3.32, R 3.34, S 3.06, T 3.12, W 2.55, Y 2.89
Q4: A 1.9, C 2.46, E 2.19, F 1.73, H 2.67, I 2.11, K 2.19, L 2.62, N 2.66, P 2.74, R 1.87, S 3.29, T 2.41, V 1.81, W 1.82, Y 1.95
G5: A 2.06, C 2.3, D 3.21, E 3.34, F 2.59, H 2.52, I 2.35, K 2.3, L 2.92, M 1.75, N 2.63, P 2.69, Q 2.76, R 2.35, S 2.52, T 2.29, V 1.53, W 1.87, Y 1.39
D6: A 2.27, C 1.8, E 2.63, F 1.58, G 2.64, H 2.24, I 2.69, K 1.74, L 1.71, M 2.61, N 2.83, P 2.34, Q 1.99, R 1.9, S 2.28, T 1.84, V 1.43, W 1.37, Y 2.45
I7: A 3.29, C 3.09, D 3.35, E 3.71, F 2.01, G 2.83, H 3.37, K 3.54, L 2.04, M 2.31, N 3.82, P 3.15, Q 2.97, R 2.31, S 3.21, T 3.3, V 2.98, W 1.71, Y 2.66
F8: A 3.43, C 3.14, D 3.67, E 4.43, G 3.01, H 2.97, I 2.62, K 3.23, L 2.75, M 2.42, N 3.01, P 4.1, Q 3.78, R 2.92, S 3.34, T 3.3, V 3.06, W 2.51, Y 3.25
R9: A 3.05, C 2.22, D 3.68, E 3.21, F 2.57, G 2.56, H 2.55, I 2.4, K 3.02, L 2.35, M 2.18, N 3.4, P 3.18, Q 2.91, S 2.6, T 2.85, V 2.65, W 1.88, Y 2.37
S10: A 2.29, C 2.3, D 3.07, E 2.44, F 2.05, G 3.17, H 2.48, I 2.31, K 2.35, L 3.46, M 2.49, N 2.48, P 2.27, Q 3.37, R 3.23, T 2.45, V 2.92, W 1.54, Y 3.11
K11: A 2.26, C 2.22, D 2.38, E 2.63, F 2.3, G 3.68, H 2.69, I 1.66, L 2.23, M 2.49, N 3, P 3.22, Q 2.33, R 2.72, S 2.99, V 2.36, W 2.04, Y 1.93
L12: A 3.21, C 3.03, D 2.83, E 3.51, F 2.29, G 2.83, H 2.71, I 2.8, K 3.16, M 2.41, N 2.82, P 3.09, Q 2.92, R 2.22, S 2.89, T 3.17, V 2.36, W 2.42, Y 2.61
K13: A 2.38, C 2.2, D 2.87, E 2.53, F 1.68, G 2.05, H 2.55, I 2.15, L 2.94, M 1.93, N 2.31, P 3.01, Q 2.69, R 2.67, S 2.54, T 2.7, V 2.41, Y 1.89
N14: A 2.6, C 2.13, D 2.67, E 2.7, F 2.48, G 2.24, H 2.26, I 2.43, K 2.55, L 2.47, M 2, P 2.45, Q 2.36, R 1.91, S 1.99, T 1.88, W 2.15, Y 2.53
R15: A 2.81, C 2.54, D 2.61, E 3.02, F 2.39, G 2.91, H 2.62, I 2.52, K 3, L 2.92, M 2.07, N 2.57, P 2.81, Q 3.09, S 2.66, T 3.26, V 2.78, W 2.25, Y 3.17
P16: A 2.8, C 1.92, D 2.89, E 3.38, F 2.49, G 2.02, H 2.52, I 2.36, K 2.68, L 1.57, M 2.17, N 2.51, Q 2.5, R 2.7, S 2.52, T 2.6, V 1.64, W 1.74, Y 1.91
S17: A 3.12, C 2.89, D 2.85, E 2.43, F 1.66, G 2.87, H 2.77, I 2.08, K 2.45, L 2.63, M 1.83, N 3.48, P 2.41, Q 2.05, T 2.82, V 2.47, W 2.17, Y 2.08
S18: A 2.58, C 3.17, D 3.11, E 3.11, F 2.37, G 4.75, H 3.27, I 1.84, K 2.59, L 3.55, M 1.8, N 2.54, P 1.91, Q 2.39, R 2.42, T 2.45, V 2.25, W 1.46, Y 2.01
E19: A 2.33, C 2.44, D 2.88, F 1.7, G 2.24, H 2.36, I 2.24, K 2.21, L 1.97, M 2.02, N 2.48, P 1.95

Reference: the supplement of paper PMC10567573
